Test results as given in paper PMC3021122.

Molecular target: Shigella flexneri Spa15 (residues 1-133), N-terminal His tag, unlabelled (Shigella flexneri) (UniProt P35530)
Test: multi-angle laser light scattering; co-purified Spa15:IpgB1 complex; data not shown

“Shigella flexneri IpgB1 (residues 1-208) (natural protein)” was tested, and the stoichiometry N (Spa15 per IpgB1) was 2.
